Experimental data: IntAct's records for PubMed 21441902

B1: ATP-dependent RNA helicase DBP5 (Saccharomyces cerevisiae), P20449 (parent)
chain: MSDTKRDPADLLASLKIDNEKEDTSEVSTKETVKSQPEKTADSIKPAEKLVPKVEEKKTKQEDSNLISSEYEVKVKLADIQADPNSPLYSAKSFDELGLAPELLKGIYAMKFQKPSKIQERALPLLLHNPPRNMIAQSQSGTGKTAAFSLTMLTRVNPEDASPQAICLAPSRELARQTLEVVQEMGKFTKITSQLIVPDSFEKNKQINAQVIVGTPGTVLDLMRRKLMQLQKIKIFVLDEADNMLDQQGLGDQCIRVKRFLPKDTQLVLFSATFADAVRQYAKKIVPNANTLELQTNEVNVDAIKQLYMDCKNEADKFDVLTELYGLMTIGSSIIFVATKKTANVLYGKLKSEGHEVSILHGDLQTQERDRLIDDFREGRSKVLITTNVLARGIDIPTVSMVVNYDLPTLANGQADPATYIHRIGRTGRFGRKGVAISFVHDKNSFNILSAIQKYFGDIEMTRVPTDDWDEVEKIVKKVLKD
partner: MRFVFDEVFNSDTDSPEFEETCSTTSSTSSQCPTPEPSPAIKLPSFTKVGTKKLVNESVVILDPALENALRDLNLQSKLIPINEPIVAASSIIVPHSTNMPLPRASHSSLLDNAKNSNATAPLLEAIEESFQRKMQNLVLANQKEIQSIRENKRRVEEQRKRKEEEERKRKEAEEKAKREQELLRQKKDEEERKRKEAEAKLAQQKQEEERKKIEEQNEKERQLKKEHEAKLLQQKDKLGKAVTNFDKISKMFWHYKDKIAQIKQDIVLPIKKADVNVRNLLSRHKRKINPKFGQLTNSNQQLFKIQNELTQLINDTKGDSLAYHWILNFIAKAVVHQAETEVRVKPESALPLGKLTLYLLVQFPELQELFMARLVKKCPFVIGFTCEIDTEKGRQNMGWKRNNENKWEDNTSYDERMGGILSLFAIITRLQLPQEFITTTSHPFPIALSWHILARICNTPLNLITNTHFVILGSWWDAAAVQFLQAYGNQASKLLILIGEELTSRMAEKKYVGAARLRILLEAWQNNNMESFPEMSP
B2: mRNA export factor GLE1 (Saccharomyces cerevisiae), Q12315 (parent)
chain: B1 partner
partner: B1 chain

Variants of: B1
Conditions: with gle1_yeast GLE1, Q12315

effect of a mutation on the interaction	Variant
disrupting interaction	MSDTKRDPADLLASLKIDNEKEDTSEVSTKETVKSQPEKTADSIKPAEKLVPKVEEKKTKQEDSNLISSEYEVKVKLADIQADPNSPLYSAKSFDELGLAPELLKGIYAMKFQKPSKIQERALPLLLHNPPRNMIAQSQSGTGKTAAFSLTMLTRVNPEDASPQAICLAPSRELARQTLEVVQEMGKFTKITSQLIVPDSFEKNKQINAQVIVGTPGTVLDLMRRKLMQLQKIKIFVLDEADNMLDQQGLGDQCIRVKRFLPKDTQLVLFSATFADAVRQYAKKIVPNANTLELQTNEVNVDAIKQLYMDCKNEADKFDVLTELYGVMTIGSSIIFVATKKTANVLYGKLKSEGHEVSILHGDLQTQERDRLIDDFREGRSKVLITTNVLARGIDIPTVSMVVNYDLPTLANGQADPATYIHRIGRTGRFGRKGVAISFVHDKNSFNILSAIQKYFGDIEMTRVPTDDWDEVEKIVAKVLAD [L327V;K477A;K481A]

Variants of: B2
Conditions: with dbp5_yeast DBP5, P20449

effect of a mutation on the interaction	Variant
disrupting interaction	MRFVFDEVFNSDTDSPEFEETCSTTSSTSSQCPTPEPSPAIKLPSFTKVGTKKLVNESVVILDPALENALRDLNLQSKLIPINEPIVAASSIIVPHSTNMPLPRASHSSLLDNAKNSNATAPLLEAIEESFQRKMQNLVLANQKEIQSIRENKRRVEEQRKRKEEEERKRKEAEEKAKREQELLRQKKDEEERKRKEAEAKLAQQKQEEERKKIEEQNEKERQLKKEHEAKLLQQKDKLGKAVTNFDKISKMFWHYKDKIAQIKQDIVLPIKKADVNVRNLLSRHKRKINPKFGQLTNSNQQLFKIQNELTQLINDTKGDSLAYHWILNFIAKAVVHQAETEVRVKPESALPLGKLTLYLLVQFPELQELFMARLVKKCPFVIGFTCEIDTEKGRQNMGWKRNNENKWEDNTSYDERMGGILSLFAIITRLQLPQEFITTTSHPFPIALSWHILARICNTPLNLITNTHFVILGSWWDAAAVQFLQAYGNQASKLLILIGEELTSRMAEKKYDGADRLRDLLEAWQNNNMESFPEMSP [V513D;A516D;I520D]
